Data published in patent publication US20080138335A1.

Legend:
[1] = biological target: CD40 expressed on Ramos [ATCC] cells (UniProt P25942); assay: flow cytometry (FACS) on Ramos cells expressing CD40, negative control at 2 ug/ml, FIG. 1A
[2] = biological target: CD40 expressed on Ramos [ATCC] cells (UniProt P25942); assay: flow cytometry (FACS) on Ramos cells expressing CD40, negative control at 2 ug/ml, FIG. 1C
[3] = biological target: CD40 expressed on Ramos [ATCC] cells (UniProt P25942); assay: flow cytometry (FACS) on Ramos cells expressing CD40, negative control at 2 ug/ml, FIG. 3
[4] = biological target: CD40 expressed on Ramos [ATCC] cells (UniProt P25942); assay: flow cytometry (FACS) on Ramos cells expressing CD40, negative control at 2 ug/ml, FIG. 1B
[5] = biological target: CD40 expressed on Ramos [ATCC] cells (UniProt P25942); assay: cell-based or functional assay

CD40 expressed on Ramos [ATCC] cells, sequence (P25942 21-277 limits assumed): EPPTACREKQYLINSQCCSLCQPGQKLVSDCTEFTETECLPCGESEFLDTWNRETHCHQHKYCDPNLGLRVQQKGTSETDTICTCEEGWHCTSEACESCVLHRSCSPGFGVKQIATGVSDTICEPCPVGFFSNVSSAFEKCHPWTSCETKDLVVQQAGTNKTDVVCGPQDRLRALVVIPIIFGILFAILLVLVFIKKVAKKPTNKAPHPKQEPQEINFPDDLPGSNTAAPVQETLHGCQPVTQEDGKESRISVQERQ

average fluorescence intensity (average fluorescence intensity) [1]: 7.15 | average fluorescence intensity (average fluorescence intensity) [2]: 5.01 | average fluorescence intensity (average fluorescence intensity) [3]: 5.01 | average fluorescence intensity (average fluorescence intensity) [4]: 7.15 | CD95 expression level in Ramos cells stimulated with soluble CD40 ligand, isotype control of FIG. 4 (average fluorescence intensity) [5]: 27.2 | CD95 expression level in Ramos cells, isotype control of FIG. 2A (average fluorescence intensity) [5]: 7.58 | CD95 expression level in Ramos cells, isotype control of FIG. 2B (average fluorescence intensity) [5]: 7.58 | CD95 expression level in Ramos cells, isotype control of FIG. 2C (average fluorescence intensity) [5]: 6.29
Substance: human IgG1 antibody against human serum albumin
